Like-named read-outs stand apart in the source and are kept apart here. Starred links: 1 amine or outer side, 2 acyl side, 3 side chain; linkers in the order of their positions; H or OH if unused. Non-standard residues stand in square brackets, D forms with d. No end group written: not given here. *: point of attachment. Thr(Bzl) = O-benzyl-threonine, C[C@@H](OCc1ccccc1)[C@H](N[*:1])C(=O)[*:2]; Ser(Bzl) = O-benzyl-serine, O=C([C@H](COCc1ccccc1)N[*:1])[*:2]; dPhe(4-Cl) = N[C@H](Cc1ccc(Cl)cc1)C(=O)O; Heptanoyl = CCCCCCC(=O)*; Ahp = NCCCCCCC(=O)O
Tests used:
[1] = target: T1, human melanocortin 4 receptor (human, UniProt P32245 1-332); test: cell-based or functional assay
T1 sequence (P32245 whole entry): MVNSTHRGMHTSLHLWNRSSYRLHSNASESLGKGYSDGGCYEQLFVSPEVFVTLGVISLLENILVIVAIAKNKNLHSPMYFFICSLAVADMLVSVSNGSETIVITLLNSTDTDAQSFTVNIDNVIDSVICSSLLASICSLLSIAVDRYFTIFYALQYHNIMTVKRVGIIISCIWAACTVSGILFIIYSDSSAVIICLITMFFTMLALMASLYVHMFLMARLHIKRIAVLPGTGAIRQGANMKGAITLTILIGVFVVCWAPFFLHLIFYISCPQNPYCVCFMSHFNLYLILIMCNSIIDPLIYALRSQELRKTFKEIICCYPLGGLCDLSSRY

[2] = target: T1, human melanocortin 4 receptor; test: cell-based or functional assay; remark: listed apart in the source
[3] = target: T2, MC1-R of B-16 mouse melanoma cells (mouse, UniProt Q01727 1-315); test: radioligand competition, [I125]-NDP-α-MSH, B-16 membranes
T2 construct: whole, on cells; also called B16-F10 (MC1-R)
T2 sequence (Q01727 whole entry): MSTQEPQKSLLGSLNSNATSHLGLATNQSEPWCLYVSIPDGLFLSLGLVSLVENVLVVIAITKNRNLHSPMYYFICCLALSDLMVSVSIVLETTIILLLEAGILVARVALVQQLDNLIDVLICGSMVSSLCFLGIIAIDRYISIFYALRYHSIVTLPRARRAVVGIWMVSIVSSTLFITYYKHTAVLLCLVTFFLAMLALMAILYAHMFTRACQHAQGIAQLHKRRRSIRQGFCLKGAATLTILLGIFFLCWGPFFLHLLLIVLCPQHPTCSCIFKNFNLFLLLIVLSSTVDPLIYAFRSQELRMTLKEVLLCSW

[4] = target: T3, human melanocortin 3 receptor (human, UniProt P41968 1-323); test: radioligand competition, [I125]-NDP-α-MSH, hMC3-R membranes
T3 construct: whole, on cells; also called hMC3-R; MC3-R
T3 sequence (P41968 whole entry): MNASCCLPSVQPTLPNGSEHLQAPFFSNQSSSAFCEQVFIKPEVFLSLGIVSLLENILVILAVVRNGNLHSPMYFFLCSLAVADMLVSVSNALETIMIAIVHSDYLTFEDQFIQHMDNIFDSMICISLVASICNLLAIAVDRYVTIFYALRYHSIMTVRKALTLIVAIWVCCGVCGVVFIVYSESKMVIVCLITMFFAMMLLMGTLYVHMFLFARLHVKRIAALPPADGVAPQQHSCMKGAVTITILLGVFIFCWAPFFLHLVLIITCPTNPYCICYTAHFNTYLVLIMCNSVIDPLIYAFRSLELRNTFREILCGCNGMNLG

[5] = target: T1, human melanocortin 4 receptor; test: radioligand competition, [I125]-NDP-α-MSH, hMC4-R membranes
[6] = target: T4, human melanocortin 5 receptor (human, UniProt P33032 1-325); test: radioligand competition, [I125]-NDP-α-MSH, hMC5-R membranes
T4 construct: whole, on cells; also called hMC5-R; MC5-R
T4 sequence (P33032 whole entry): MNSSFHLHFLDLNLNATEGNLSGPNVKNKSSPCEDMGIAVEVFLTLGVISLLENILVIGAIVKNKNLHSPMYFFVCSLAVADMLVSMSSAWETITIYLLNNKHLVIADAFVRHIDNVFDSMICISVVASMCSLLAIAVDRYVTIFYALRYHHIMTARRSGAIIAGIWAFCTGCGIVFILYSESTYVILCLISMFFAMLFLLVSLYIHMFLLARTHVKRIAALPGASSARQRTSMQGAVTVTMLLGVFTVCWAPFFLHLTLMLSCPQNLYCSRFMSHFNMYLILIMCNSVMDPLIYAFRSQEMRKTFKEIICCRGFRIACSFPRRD

[7] = target: T1, human melanocortin 4 receptor; test: cell-based or functional assay; remark: listed apart in the source
[8] = target: T2, MC1-R of B-16 mouse melanoma cells; test: radioligand competition, [I125]-NDP-α-MSH, B-16 membranes; remark: listed apart in the source
[9] = target: T3, human melanocortin 3 receptor; test: radioligand competition, [I125]-NDP-α-MSH, hMC3-R membranes; remark: listed apart in the source
[10] = target: T1, human melanocortin 4 receptor; test: radioligand competition, [I125]-NDP-α-MSH, hMC4-R membranes; remark: listed apart in the source
[11] = target: T4, human melanocortin 5 receptor; test: radioligand competition, [I125]-NDP-α-MSH, hMC5-R membranes; remark: listed apart in the source

Binder	EC50, normal system (cAMP) [1] [nM]	intrinsic activity, normal system (cAMP) [1]	EC50 (nM) (cAMP), High Receptor Density System [2]	Ki [3] [nM]	Ki [4] [nM]	Ki [5] [nM]	Ki [6] [nM]	EC50 (nM), normal system (cAMP) [1] [nM]	EC50 (nM) (cAMP), High Receptor Density System [7]	Ki [8] [nM]	Ki [9] [nM]	Ki [10] [nM]	Ki [11] [nM]
[Ahp][Ser(Bzl)][dPhe(4-Cl)]RWA-NH2 (N-terminus assumed; SMILES C[C@H](NC(=O)[C@H](Cc1c[nH]c2ccccc12)NC(=O)[C@H](CCCNC(=N)N)NC(=O)[C@@H](Cc1ccc(Cl)cc1)NC(=O)[C@H](COCc1ccccc1)NC(=O)CCCCCCN)C(N)=O, also called Compound No. 15) [NH2-(CH2)6-C(=O)-Ser(Bzl)-D-Phe(4-Cl)-Arg-Trp-Ala-NH2]	> 1000	< 0.1	55	142	35	2	112	–	–	–	–	–	–
Heptanoyl-[Thr(Bzl)][dPhe(4-Cl)]RW-NH2 (SMILES CCCCCCC(=O)N[C@H](C(=O)N[C@H](Cc1ccc(Cl)cc1)C(=O)N[C@@H](CCCNC(=N)N)C(=O)N[C@@H](Cc1c[nH]c2ccccc12)C(N)=O)[C@@H](C)OCc1ccccc1, also called Compound No. 23) [Heptanoyl-Thr(Bzl)-D-Phe(4-Cl)-Arg-Trp-NH2]	–	0.4	–	–	–	–	–	> 1000	184	747	374	21	292

Source: US20090081197A1 (PALATIN TECHNOLOGIES, published 2009)
